According to doi:10.1101/2025.04.30.651496 (bioRxiv, 2025):

Molecular target: the molecule itself
Experiment: cryo-EM structure

B1: untagged G3BP2 NTF2L domain (amino acids 1-139) (domain or fragment)
chain: MVMEKPSPLLVGREFVRQYYTLLNKAPEYLHRFYGRNSSYVHGGVDASGKPQEAVYGQNDIHHKVLSLNFSECHTKIRHVDAHATLSDGVVVQVMGLLSNSGQPERKFMQTFVLAPEGSVPNKFYVHNDMFRYEDEVFG
  stoichiometry N: 2
